Laboratory results from the supplement of paper PMC10567573.

B1: POMT2 (parent)
chain: YHEAPMTRKHYQVTGYGINGTGDS
B2: ZER1 (parent)
chain: PILRLLPQGISPVSQHWATWALYN

Variants of: B1
Experiment: protein stability index of a GFP-peptide fusion (GPS, HEK-293T) (PSI 1-6); higher = more stable
Conditions: c terminus: a fixed tail appended
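Also: lentivirally expressed fusions sorted by FACS into six bins by GFP to DsRed ratio, PSI derived from sequencing read proportions per bin multiplied by bin number.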

Variant | protein stability index
YSEAPMTRKHYQVTGYGINGTGDS [H2S] | 3.39
YNEAPMTRKHYQVTGYGINGTGDS [H2N] | 3.5
YQEAPMTRKHYQVTGYGINGTGDS [H2Q] | 3.33
YFEAPMTRKHYQVTGYGINGTGDS [H2F] | 3.38
YEEAPMTRKHYQVTGYGINGTGDS [H2E] | 3.95
YLEAPMTRKHYQVTGYGINGTGDS [H2L] | 3.07
YGEAPMTRKHYQVTGYGINGTGDS [H2G] | 2.92
YWEAPMTRKHYQVTGYGINGTGDS [H2W] | 2.72
YYEAPMTRKHYQVTGYGINGTGDS [H2Y] | 2.75
YTEAPMTRKHYQVTGYGINGTGDS [H2T] | 2.58
YPEAPMTRKHYQVTGYGINGTGDS [H2P] | 2.99
YIEAPMTRKHYQVTGYGINGTGDS [H2I] | 2.21
YCEAPMTRKHYQVTGYGINGTGDS [H2C] | 1.97
YMEAPMTRKHYQVTGYGINGTGDS [H2M] | 3.09
YVEAPMTRKHYQVTGYGINGTGDS [H2V] | 1.89
YKEAPMTRKHYQVTGYGINGTGDS [H2K] | 3.57
YAEAPMTRKHYQVTGYGINGTGDS [H2A] | 2.56
YREAPMTRKHYQVTGYGINGTGDS [H2R] | 3.81
YDEAPMTRKHYQVTGYGINGTGDS [H2D] | 3.98
YHEGPMTRKHYQVTGYGINGTGDS [A4G] | 2.37
YHEEPMTRKHYQVTGYGINGTGDS [A4E] | 2.93
YHEDPMTRKHYQVTGYGINGTGDS [A4D] | 2.95

Variant | protein stability index
YHEWPMTRKHYQVTGYGINGTGDS [A4W] | 2.2
YHEVPMTRKHYQVTGYGINGTGDS [A4V] | 2.96
YHEQPMTRKHYQVTGYGINGTGDS [A4Q] | 2.68
YHELPMTRKHYQVTGYGINGTGDS [A4L] | 1.91
YHEPPMTRKHYQVTGYGINGTGDS [A4P] | 1.96
YHEFPMTRKHYQVTGYGINGTGDS [A4F] | 2.68
YHEMPMTRKHYQVTGYGINGTGDS [A4M] | 1.49
YHEYPMTRKHYQVTGYGINGTGDS [A4Y] | 3.11
YHEHPMTRKHYQVTGYGINGTGDS [A4H] | 2.04
YHEIPMTRKHYQVTGYGINGTGDS [A4I] | 2.42
YHESPMTRKHYQVTGYGINGTGDS [A4S] | 1.92
YHERPMTRKHYQVTGYGINGTGDS [A4R] | 2.45
YHEKPMTRKHYQVTGYGINGTGDS [A4K] | 2.18
YHENPMTRKHYQVTGYGINGTGDS [A4N] | 1.69
YHETPMTRKHYQVTGYGINGTGDS [A4T] | 2.21
YHECPMTRKHYQVTGYGINGTGDS [A4C] | 2.5
YHSAPMTRKHYQVTGYGINGTGDS [E3S] | 1.6
YHYAPMTRKHYQVTGYGINGTGDS [E3Y] | 1.77
YHCAPMTRKHYQVTGYGINGTGDS [E3C] | 2
YHFAPMTRKHYQVTGYGINGTGDS [E3F] | 1.52
YHQAPMTRKHYQVTGYGINGTGDS [E3Q] | 1.34
YHDAPMTRKHYQVTGYGINGTGDS [E3D] | 2.15

Variant | protein stability index
YHTAPMTRKHYQVTGYGINGTGDS [E3T] | 2.32
YHKAPMTRKHYQVTGYGINGTGDS [E3K] | 1.9
YHMAPMTRKHYQVTGYGINGTGDS [E3M] | 1.67
YHAAPMTRKHYQVTGYGINGTGDS [E3A] | 2.46
YHRAPMTRKHYQVTGYGINGTGDS [E3R] | 1.47
YHPAPMTRKHYQVTGYGINGTGDS [E3P] | 2.87
YHNAPMTRKHYQVTGYGINGTGDS [E3N] | 2.38
YHLAPMTRKHYQVTGYGINGTGDS [E3L] | 1.61
YHHAPMTRKHYQVTGYGINGTGDS [E3H] | 1.77
YHIAPMTRKHYQVTGYGINGTGDS [E3I] | 1.73
YHVAPMTRKHYQVTGYGINGTGDS [E3V] | 2.22
YHGAPMTRKHYQVTGYGINGTGDS [E3G] | 2.75
YHWAPMTRKHYQVTGYGINGTGDS [E3W] | 1.44
MHEAPMTRKHYQVTGYGINGTGDS [Y1M] | 3.71
KHEAPMTRKHYQVTGYGINGTGDS [Y1K] | 3.97
IHEAPMTRKHYQVTGYGINGTGDS [Y1I] | 4.03
SHEAPMTRKHYQVTGYGINGTGDS [Y1S] | 3.68
RHEAPMTRKHYQVTGYGINGTGDS [Y1R] | 3.51
WHEAPMTRKHYQVTGYGINGTGDS [Y1W] | 3.72
VHEAPMTRKHYQVTGYGINGTGDS [Y1V] | 3.49
DHEAPMTRKHYQVTGYGINGTGDS [Y1D] | 3.94
EHEAPMTRKHYQVTGYGINGTGDS [Y1E] | 4.3

Variant | protein stability index
GHEAPMTRKHYQVTGYGINGTGDS [Y1G] | 3.53
FHEAPMTRKHYQVTGYGINGTGDS [Y1F] | 1.89
NHEAPMTRKHYQVTGYGINGTGDS [Y1N] | 3.5
LHEAPMTRKHYQVTGYGINGTGDS [Y1L] | 3.47
PHEAPMTRKHYQVTGYGINGTGDS [Y1P] | 4.07
AHEAPMTRKHYQVTGYGINGTGDS [Y1A] | 3.68
HHEAPMTRKHYQVTGYGINGTGDS [Y1H] | 3.58
QHEAPMTRKHYQVTGYGINGTGDS [Y1Q] | 3.9
THEAPMTRKHYQVTGYGINGTGDS [Y1T] | 3.91
CHEAPMTRKHYQVTGYGINGTGDS [Y1C] | 3.05
YHEAIMTRKHYQVTGYGINGTGDS [P5I] | 3.27
YHEAAMTRKHYQVTGYGINGTGDS [P5A] | 2.62
YHEACMTRKHYQVTGYGINGTGDS [P5C] | 2.31
YHEALMTRKHYQVTGYGINGTGDS [P5L] | 1.89
YHEAKMTRKHYQVTGYGINGTGDS [P5K] | 2.36
YHEAFMTRKHYQVTGYGINGTGDS [P5F] | 2.77
YHEAGMTRKHYQVTGYGINGTGDS [P5G] | 2.51
YHEAHMTRKHYQVTGYGINGTGDS [P5H] | 2.74
YHEAEMTRKHYQVTGYGINGTGDS [P5E] | 3.17
YHEANMTRKHYQVTGYGINGTGDS [P5N] | 2.32
YHEADMTRKHYQVTGYGINGTGDS [P5D] | 2.72
YHEAMMTRKHYQVTGYGINGTGDS [P5M] | 2.79

Variants of: B2
Experiment: as above
Conditions: c terminus: a fixed tail appended

Variant | protein stability index
PILRLLPQGISPVSQHWATWALYV [N24V] | 3.21
PILRLLPQGISPVSQHWATWALYW [N24W] | 2.32
PILRLLPQGISPVSQHWATWALYQ [N24Q] | 2.31
PILRLLPQGISPVSQHWATWALYP [N24P] | 3.08
PILRLLPQGISPVSQHWATWALYR [N24R] | 4.17
PILRLLPQGISPVSQHWATWALYT [N24T] | 2.25
